According to paper PMC5496856:

B1: MPT32 (also called Rv1860 or Apa): T10V (protein)
parent chain: MHQVDPNLTRRKGRLAALAIAAMASASLVTVAVPATANADPEPAPPVPTTAASPPSTAAAPPAPATPVAPPPPAAANTPNAQPGDPNAAPPPADPNAPPPPVIAPNAPQPVRIDNPVGGFSFALPAGWVESDAAHFDYGSALLSKTTGDPPFPGQPPPVANDTRIVLGRLDQKLYASAEATDSKAAARLGSDMGEFYMPYPGTRINQETVSLDANGVSGSASYYEVKFSDPSKPNGQIWTGVIGSPAANAPDAGPPQRWFVVWLGTANNPVDKGAAKALAESIRPLVAPPPAPAPAPAEPAPAPAPAGEVAPTPTTPTPQRTLPA
B2: MPT32 (also called Rv1860 or Apa): T18V (protein)
parent chain: B1 parent chain

Details: glycan lost; control: wild type

Protein | other: T cell antigenicity
B1 | no change
B2 | increases
